How the values were obtained:
Insulin (abs42019847) = biological target: T1, Insulin (abs42019847); test: ELISA, insulin coated on the plate, 100 nM antibody, anti-human IgG-HRP
T1 construct: Coated on the plate in the polyspecificity ELISA
Method: (§1) (1) Antigen coating: cardiolipin (Sigma, cat. C0563), keyhole limpet haemocyanin (KLH, Sigma, H8283), LPS (Sigma, L6529), ssDNA (Sigma, D8899), dsDNA (Sigma, D4522) and Insulin (abs42019847) were plated at 50 μg/mL, 5 μg/mL, 10 μg/mL, 1 μg/mL, 1 μg/mL, g/mL, and 50 μL per well, and incubated at 4° C. overnight;
(§2) (4) 50 μl anti-human IgG-HRP conjugate (Sigma, AP113P, 1:8000 dilution) was added to each well; the plate was incubated for 1 h at room temperature and washed 6 times with 0.05% PBST;

[1] = biological target: T2, human HER2 on tumor cells (human, UniProt P04626 23-1255); test: cell-based or functional assay
[2] = biological target: T3, keyhole limpet haemocyanin (KLH, Sigma, H8283) (keyhole limpet, UniProt Q10583 17-3414; Q10584 20-3421, limits assumed); test: ELISA, KLH coated at 5 ug/mL, 100 nM antibody, anti-human IgG-HRP
T3 construct: Bought preparation coated on the plate in the polyspecificity ELISA
Method: as §1, §2

[3] = biological target: T4, recombinant tumor antigen human HER2 (ERBB2, ACRO systems, HE2-H5212) (human, UniProt P04626 23-652); test: BLI (Octet RED96e), antibody captured on AHC anti-human Fc sensor, HER2 as analyte, 30 C, 1:1 fit
T4 construct: Bought recombinant protein
From the text: After the chip captures the bispecific antibodies, it was allowed to bind and dissociate with different concentrations of analytes to obtain the KD value of the interaction. The experimental parameters are as follows: Baseline1: 60s, Loading: 240s, Baseline2: 180s, Association: 240s, Dissociation: 600s, Loading Response: 1.9-2.1 (nm), High sensitivity kinetics: 2 Hz. Kinetic constants were derived based on 1:1 Langmuir binding to obtain equilibrium dissociation constants (KD).

[4] = biological target: T2, human HER2 on tumor cells; test: cell-based or functional assay; remark: listed apart in the source

Absorbance value (450 nm, polyspecificity ELISA) (Insulin (abs42019847)): 1.51
Absorbance value (450 nm, polyspecificity ELISA) [2]: 1.92
Kd [3]: 18 nM
koff [3]: 0.00413 s⁻¹
kon [3]: 230000 M⁻¹ s⁻¹
B1: HER2-CD3 bispecific antibody 504 (bispecific antibody, human IgG4 S228P, kappa, F234A L235A)
chain: QVQLVQSGGGLVQAGGSLRLSCAASGRTFSSYAMAWFRQAPGKEREFVAAISWSGANIYVADSVKGRFTISRDNAKDTVYLQMNSLKPEDTAVYYCAVKLGFAPVEERQYDYWGQGTQVTVSSESKYGPPCPPCPAPEAAGGPSVFLFPPKPKDTLMISRTPEVTCVVVDVSQEDPEVQFNWYVDGVEVHNAKTKPREEQFNSTYRVVSVLTVLHQDWLNGKEYKCKVSNKGLPSSIEKTISKAKGQPREPQVYTLPPCQEEMTKNQVSLWCLVKGFYPSDIAVEWESNGQPENNYKTTPPVLDSDGSFFLYSRLTVDKSRWQEGNVFSCSVMHEALHNHYTQKSLSLSL
heavy: EVKLLESGGGLVQPKGSLKLSCAASGFTFNTYAMNWVRQAPGKGLEWVARIRSKYNNYATYYADSVKDRFTISRDDSQSILYLQMNNLKTEDTAMYYCVRHGNFGNSYVSWFAYWGQGTLVTVSSASTKGPSVFPLAPCSRSTSESTAALGCLVKDYFPEPVTVSWNSGALTSGVHTFPAVLQSSGLYSLSSVVTVPSSSLGTKTYTCNVDHKPSNTKVDKRVESKYGPPCPPCPAPEAAGGPSVFLFPPKPKDTLMISRTPEVTCVVVDVSQEDPEVQFNWYVDGVEVHNAKTKPREEQFNSTYRVVSVLTVLHQDWLNGKEYKCKVSNKGLPSSIEKTISKAKGQPREPQVCTLPPSQEEMTKNQVSLSCAVKGFYPSDIAVEWESNGQPENNYKTTPPVLDSDGSFFLVSRLTVDKSRWQEGNVFSCSVMHEALHNRFTQKSLSLSL
light: QAVVTQESALTTSPGETVTLTCRSSTGAVTTSNYANWVQEKPDHLFTGLIGGTNKRAPGVPARFSGSLIGDKAALTITGAQTEDEAIYFCALWYSNLWVFGGGTKVEIKRTVAAPSVFIFPPSDEQLKSGTASVVCLLNNFYPREAKVQWKVDNALQSGNSQESVTEQDSKDSTYSLSSTLTLSKADYEKHKVYACEVTHQGLSSPVTKSFNRGEC
EC50 of tumor cell killing, MDA-MB-468 cells with human PBMC (E:T 10:1, 3 days, CCK8) [1]: 0.332 nM
EC50 of tumor cell killing, NCI-H1573 cells with human PBMC (E:T 10:1, 3 days, CCK8) [1]: 0.0378 nM
EC50 of tumor cell killing, NCI-H1650 cells with human PBMC (E:T 10:1, 3 days, CCK8) [1]: 1.62 nM
EC50 of tumor cell killing, NCI-H2228 cells with human PBMC (E:T 10:1, 3 days, CCK8) [1]: 2.43 nM
EC50 of tumor cell killing, SK-OV-3 cells with human PBMC (E:T 10:1, 3 days, CCK8) [1]: 0.01 nM
EC50 of tumor cell killing, MCF-7 cells with human PBMC (E:T 10:1, 3 days, CCK8) [4]: 1.22 nM
EC50 of tumor cell killing, MDA-MB-453 cells with human PBMC (E:T 10:1, 3 days, CCK8) [4]: 4.06 nM
EC50 of tumor cell killing, N87 cells with human PBMC (E:T 10:1, 3 days, CCK8) [4]: 1.29 nM
EC50 of tumor cell killing, NCI-H157 cells with human PBMC (E:T 10:1, 3 days, CCK8) [4]: 10.8 nM
EC50 of tumor cell killing, NCI-H441 cells with human PBMC (E:T 10:1, 3 days, CCK8) [4]: 0.119 nM
